Measured values published in patent US20180066058A1 (published 2018).
One block for each binder: values may come before it.

Assays:
[1] = target: T1, human ICOS-mFc (Chimerigen) (human, UniProt Q9Y6W8 21-140); assay: HTRF neutralisation of Alexa 647 human B7-H2 binding to human ICOS-mFc; human IgG1; mean, n = 4
T1 construct: also called human ICOS receptor; human ICOS Receptor; not shown: mouse Fc of the bought construct
T1 sequence: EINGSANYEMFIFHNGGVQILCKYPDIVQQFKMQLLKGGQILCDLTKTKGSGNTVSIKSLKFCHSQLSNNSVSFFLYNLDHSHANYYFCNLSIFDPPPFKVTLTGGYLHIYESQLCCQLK
Protocol: (§1) 5 μl of ICOS receptor (human ICOS-mFc, 20 nM, 5 nM final or mouse ICOS-mFc 4 nM, 1 nM final (Chimerigen)) was added to required wells. Plate was incubated for 1 hr at room temperature (RT).
(§2) Finally, 5 μl of anti-mouse IgG donor mAb (Southern Biotech) labelled with europium cryptate (Cis Bio), 40 nM, 10 nM final was added to each well and the assay was left in the dark at RT to incubate for a further 2 hours. After incubation, assay was read on Envision plate reader (Perkin Elmer) using a standard HTRF protocol. […] Titration curves and IC50 values [M] were plotted using Graphpad (Prism). IC50 values were calculated by first transforming the data using equation X=Log(X). The transformed data was then fitted using nonlinear regression, using fitting algorithm, log (inhibitor) vs. response—variable slope (four parameters).

Human ICOS on cells [2] = target: T2, Human ICOS on cells (human, UniProt Q9Y6W8 21-199); assay: cell-based or functional assay
T2 sequence: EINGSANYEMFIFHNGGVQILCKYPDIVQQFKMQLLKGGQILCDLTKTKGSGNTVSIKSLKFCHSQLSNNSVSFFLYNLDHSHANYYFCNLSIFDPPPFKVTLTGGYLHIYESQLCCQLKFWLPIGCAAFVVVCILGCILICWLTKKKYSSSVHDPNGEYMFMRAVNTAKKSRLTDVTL

[3] = target: T3, Cynomolgus ICOS on activated cynomolgus T cells (cynomolgus, UniProt Q9Y6W8 21-195 (human entry)); assay: flow cytometry, AF647 pre-labelled hIgG1 on activated cynomolgus pan T cells, donor 2
T3 construct: also called NHP ICOS
T3 chain: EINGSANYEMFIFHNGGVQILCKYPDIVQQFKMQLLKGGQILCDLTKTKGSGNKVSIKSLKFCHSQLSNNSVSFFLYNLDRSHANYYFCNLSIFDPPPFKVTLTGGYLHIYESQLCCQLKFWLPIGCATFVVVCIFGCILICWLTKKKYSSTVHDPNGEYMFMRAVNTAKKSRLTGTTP
Protocol: (§3) PBMC from whole blood of 2 Mauritian cynomolgus macaques (Wickham Laboratories) were isolated by gradient centrifugation and cultured for 3 days with CD2/CD3/CD28 MACSiBeads (Miltenyi) to induce ICOS expression on their surface. […] Cells were also labelled with V450-CD3 to assess staining on T-cell subsets. Stained cells were run on Attune (Thermofisher) and staining intensity was presented as mean fluorescence intensity (MFI). EC50 was determined using GraphPad Prism.

Human ICOS on cells [4] = target: T2, Human ICOS on cells; assay: flow cytometry on activated primary human pan T cells; naked hIgG1 detected with AF647 goat anti-human Fc
Protocol: (§4) Pan T-cells (CD3 cells) were isolated and cultured for 3 days with CD3/CD28 dynabeads (Thermofisher) to induce ICOS expression on their surface. […] Stained cells were ran on the Attune and staining intensity was presented as Mean of fluorescence intensity (MFI). EC50 was determined using GraphPad Prism.

[5] = target: T4, mouse ICOS-mFc (Chimerigen) (mouse, UniProt Q9WVS0 21-141, limits assumed); assay: HTRF neutralisation of Alexa 647 mouse B7-H2 binding to mouse ICOS-mFc; human IgG1; mean, n = 3
T4 construct: also called mouse ICOS receptor; mouse ICOS Receptor; not shown: mouse Fc of the bought construct
T4 sequence: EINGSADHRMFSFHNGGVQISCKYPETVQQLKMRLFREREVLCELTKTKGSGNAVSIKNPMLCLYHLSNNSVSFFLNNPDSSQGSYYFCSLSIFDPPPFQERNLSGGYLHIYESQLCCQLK
Protocol: as §1, §2

Human ICOS on cells [6] = target: T2, Human ICOS on cells; assay: flow cytometry on activated human pan T cells (row Human), second donor column
[7] = target: T3, Cynomolgus ICOS on activated cynomolgus …; assay: flow cytometry, AF647 pre-labelled hIgG1 on activated cynomolgus pan T cells, donor 1
Protocol: as §3

Human ICOS on cells [8] = target: T2, Human ICOS on cells; assay: cell-based or functional assay; remark: listed apart in the source
Human ICOS on cells [9] = target: T2, Human ICOS on cells; assay: flow cytometry on activated human pan T cells (row Human), first donor column
Human ICOS on cells [10] = target: T2, Human ICOS on cells; assay: flow cytometry on activated primary human pan T cells; indirect binding assay; reference STIM001 hIgG1
Protocol: as §4

[11] = target: T5, Mouse ICOS extracellular domain fused to human Fc (mouse, UniProt Q9WVS0 21-141); assay: SPR (ProteOn XPR36), Fc-tagged ICOS captured on anti-human IgG, Fab analyte, 25 C
T5 construct: Made in house from NCBI NP_059508.2; also called mICOS; mICOS Fc; not shown: human Fc region
T5 sequence: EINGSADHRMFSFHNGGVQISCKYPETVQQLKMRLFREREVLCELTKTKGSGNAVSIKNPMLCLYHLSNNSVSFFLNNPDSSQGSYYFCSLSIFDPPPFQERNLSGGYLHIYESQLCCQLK
Protocol: (§5) Fab affinities of the ICOS leads were generated by SPR using the ProteOn XPR3 6 (BioRad). An anti-human IgG capture surface was created on a GLC biosensor chip by primary amine coupling, immobilising three anti-human IgG antibodies (Jackson Labs 109-005-008, 109-006-008 and 309-006-008). […] Binding sensorgrams were double referenced using a buffer injection (i.e. 0 nM), and the data was fitted to the 1:1 model inherent to the ProteOn XPR36 analysis software. The assay was run at 25° C. and using HBS-EP as running buffer.

[12] = target: T6, Human ICOS extracellular domain fused to human Fc (human, UniProt Q9Y6W8 21-140); assay: as above
T6 construct: Dimeric protein made in house from NCBI NP_036224.1; also called hICOS; hICOS Fc; not shown: human Fc region
T6 sequence: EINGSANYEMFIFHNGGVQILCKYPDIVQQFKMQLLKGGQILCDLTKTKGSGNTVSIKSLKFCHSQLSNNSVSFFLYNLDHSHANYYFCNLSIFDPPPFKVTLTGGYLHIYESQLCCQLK
Protocol: as §5

[13] = target: T6, Human ICOS extracellular domain fused …; assay: SPR (ProteOn XPR36), human ICOS ECD-Fc captured, Fab analyte, pH 5.5, 37 C
Protocol: (§6) In addition, a comparison was performed of antibody:antigen binding affinity at different pH values. As before, the dimeric human ICOS protein, presented as the extracellular domain of ICOS fused to a human Fc region, was captured on the anti-human Fc capture surface created using the 3 antibody cocktail, immobilised on the GLC biosensor chip by primary amine coupling. SPR analysis of recombinantly expressed anti-ICOS Fabs was carried out on the ProteOn XPR36 Array system (Biorad). The Fab fragments were used as analyte to generate binding sensorgrams, which were double referenced with a buffer injection (i.e., 0 nM). The subsequent referenced sensorgrams were fitted to the 1:1 model inherent to the ProteOn analysis software. […] Data were fitted to the 1:1 model.

[14] = target: T6, Human ICOS extracellular domain fused …; assay: SPR (ProteOn XPR36), human ICOS ECD-Fc captured, Fab analyte, pH 7.6, 37 C
Protocol: as §6

[15] = target: T6, Human ICOS extracellular domain fused …; assay: SPR (ProteOn XPR36), human ICOS ECD-Fc captured, Fab analyte, pH 5.5, 37 C (second run)
Protocol: as §6

[16] = target: T6, Human ICOS extracellular domain fused …; assay: SPR (ProteOn XPR36), human ICOS ECD-Fc captured, Fab analyte, pH 7.4, 37 C
Protocol: as §6

[17] = target: T6, Human ICOS extracellular domain fused …; assay: SPR (ProteOn XPR36), human ICOS ECD-Fc captured, Fab analyte, pH 7.6, 25 C

- IC50 [1]: 1.3 nM
- EC50 (Molar unit), NK primary cell ADCC assay on MJ cells, 2 hour time point, Donor 1 (Human ICOS on cells [2]): 0.00233 nM
- EC50 (Molar unit), NK primary cell ADCC assay on MJ cells, 2 hour time point, Donor 2 (Human ICOS on cells [2]): 0.0358 nM
- EC50 (Molar unit), NK primary cell ADCC assay on MJ cells, 2 hour time point, Donor 3 (Human ICOS on cells [2]): 0.101 nM
- EC50 [3]: 4.83 nM
- EC50 (Human ICOS on cells [4]): 0.148 nM
- IC50 [5]: 0.1 nM
- EC50 (Human ICOS on cells [6]): 0.895 nM
- EC50 [7]: 4.58 nM
- EC50 (Molar unit), NK primary cell ADCC assay on ICOS-transfected CCRF-CEM cells, 4 hour time point, Donor 4 (Human ICOS on cells [8]): ~0.003 nM
- EC50 (Molar unit), NK primary cell ADCC assay on ICOS-transfected CCRF-CEM cells, 4 hour time point, Donor 5 (Human ICOS on cells [8]): 0.000895 nM
- EC50 (Molar unit), NK primary cell ADCC assay on ICOS-transfected CCRF-CEM cells, 4 hour time point, Donor 6 (Human ICOS on cells [8]): 0.00103 nM
- EC50 (Human ICOS on cells [9]): 2.29 nM
- fold lower EC50 than STIM001 (Human ICOS on cells [10]): ~100 fold
B1: STIM003 human IgG1 (antibody, V domains shown)
VH: EVQLVESGGGVVRPGGSLRLSCVASGVTFDDYGMSWVRQAPGKGLEWVSGINWNGGDTDYSDSVKGRFTISRDNAKNSLYLQMNSLRAEDTALYYCARDFYGSGSYYHVPFDYWGQGILVTVSS
VL: EIVLTQSPGTLSLSPGERATLSCRASQSVSRSYLAWYQQKRGQAPRLLIYGASSRATGIPDRFSGDGSGTDFTLSISRLEPEDFAVYYCHQYDMSPFTFGPGTKVDIKR
notes: Human IgG1 format; Conjugated with AF647 in the direct staining assays, coupled to beads or plates in the MJ cell assays; also called STIM003 (hIgG1); STIM003 hIgG1

- Kd [11]: 0.4 nM
- Kd [12]: 1.3 nM
- Kd [13]: 1.02 nM
- Kd [14]: 1.98 nM
- Kd [15]: 1.15 nM
- Kd [16]: 1.71 nM
- Kd [17]: 1.31 nM
B2: STIM003 Fab (Fab, V domains shown)
VH: EVQLVESGGGVVRPGGSLRLSCVASGVTFDDYGMSWVRQAPGKGLEWVSGINWNGGDTDYSDSVKGRFTISRDNAKNSLYLQMNSLRAEDTALYYCARDFYGSGSYYHVPFDYWGQGILVTVSS
VL: EIVLTQSPGTLSLSPGERATLSCRASQSVSRSYLAWYQQKRGQAPRLLIYGASSRATGIPDRFSGDGSGTDFTLSISRLEPEDFAVYYCHQYDMSPFTFGPGTKVDIK
notes: Recombinantly expressed purified Fab
